Data taken from patent publication US12723255B2, “Herbicide tolerance genes and methods of use thereof” (priority 2014, dated 2026).
Residue numbers refer to the chain shown, from its start.

B1: MON-HT7: engineered oxygenase protein, amino acid sequence SEQ ID NO:34 (protein)
chain: MHAALTPLTNKYRFIDVQPLTGVLGAEITGVDLREPLDDSTWNEILDAFHTYQVIYFPGQAITNEQHIAFSRRFGPVDPVPLLKSIEGYPEVQMIRREANESGRVIGDDWHADSTFLDAPPAAVVMRAIEVPEYGGDTGFLSMYSAWETLSPTMQATIEGLNVVHSATKVFGSLYQATNWRFSNTSVKVMDVDAGDRETVHPLVVTHPVTGRRALYCNQVYCQKIQGMTDAESKSLLQFLYEHATKFDFTCRVRWKKDQVLVWDNLCTMHRSVPDYAGKFRYLTRTTVAGDKPSR
B2: MON-HT4: engineered oxygenase protein, amino acid sequence SEQ ID NO:25 (protein)
chain: MHAALTPLTNKYRFIDVQPLTGVLGAEITGVDLREPLDDSTWNEILDAFHTYQVIYFPGQAITNEQHIAFSRRFGPVDPVPLLKSIEGYPEVQMIRREANESGRVIGDDWHTDSTFLDAPPAAVVMYAREVPPYGGDTGFLSMYTAWETLSPTMQATIEGLNVVHSATRVFGSLYQAQNRRYSNTSVKVMDVDAGDRETVHPLVVSHPVTGRRALYCNQVYCQRIEGMTDAESKSLLQFLYEHATKFDFTCRVRWKKDQVLVWDNLCTMHRAVPDYAGKFRYLTRTTVAGDKPSR
B3: MON-HT6: engineered oxygenase protein, amino acid sequence SEQ ID NO:31 (protein)
chain: MHAALSPLSQKYRFIDVQPLTGVLGAEITGVTLREPLDDNTWNEILDAFHTYQVIYFPGQAITNEQHIAFSRRFGPVDPVPLLKSIEGYPEVQMIRREANESGRVIGDDWHTDSTFLDAPPAAVVMYAREVPPYGGDTGFLSMYSAWDTLSDTMKATIEGLNVVHSATRVFGSLYQAQNRRFSNTSVKVMDVDAGDRETVHPLVVSHPVTGRRALYCNQVYCQRIEGMTDAESKPLLQFLYEHATRFDFTCRVRWKKDQVLVWDNLCTMHRAVPDYAGKFRYLTRTTVAGDKPSR
B4: MON-HT55: engineered oxygenase protein, amino acid sequence SEQ ID NO:11 (protein)
chain: MHAALSPLSQRFERIAVQPLTGVLGAEITGVDLREPLDDSTWNEILDAFHTYQVIYFPGQAITNEQHIAFSRRFGPVDPVPLLKSIEGYPEVQMIRREANESGRVIGENWHTDSTFLDAPPAAVVMYAKEIPPYGGDTLFTSMYTAWETLSPTMQATIEGLNVVHSATRVFGSLYQAQNRRFSNTSVKVMDVDAGDRETVHPLVVTHPETGRKGLYVNQVYCQRIEGMSEKESEPLLSFLFAHATKPEFTCRVRWQEGDVLVWDNLCTQHYAVPDYAGKFRYLTRTTVGGVRPAR
B5: MON-HT3: engineered oxygenase protein, amino acid sequence SEQ ID NO:22 (protein)
chain: B4 chain with E108D, N109D, I131V, T141A, D259Q, Y271F
B6: MON-HT5: engineered oxygenase protein, amino acid sequence SEQ ID NO:28 (protein)
chain: B1 chain with A112T, S272A

Assay: kinetic analysis, non-endpoint assay at 23° C.
Assay type: biochemical
Details: not given
Description: For the fifth screen, recombinant protein for each of the eleven engineered proteins was produced and purified for an in-depth biochemical analysis. This biochemical analysis included: (1) kinetic analysis (Vmax and Km), (2) activity assays over a range of temperatures, (3) protein melting analysis, (4) activity on additional AOPP herbicides substrates, and (5) mass spectrometry analysis on peptides to confirm identity. The biochemical analyses were also done with purified recombinant wild-type protein and MON-HT55 protein for comparison. For the kinetic analysis, a non-endpoint assay was conducted at 23° C. with either quizalofop-P or 2,4-D as substrate. The recombinant proteins for these assays were produced in bacteria and purified using a 6-His tag fused at the C-terminal end of the protein. Results of the kinetic analysis with either quizalofop-P or 2,4-D as substrate are presented for ten of the engineered proteins, wild-type protein, and MON-HT55 protein in Table 7 (standard error is shown in parenthetical). Vmax is expressed as specific activity, umol herbicide product mg enzyme-1 min-1; Km expressed as mM herbicide substrate. […] The differentiation of the protein kinetics for MON-HTI and MON-HT7 were surprising because there are only four amino acid differences between MON-HT1 and MON-HT7. Specifically, MON-HT1 has the following amino acids at the indicated position: 182; F105; T112; and V273, and MON-HT7 has the following amino acids at the indicated position: L82; V105; S112; and A273.
Kinetic analysis using a non-endpoint assay was conducted at 23° C. with either quizalofop-P or 2,4-D as substrate, as detailed above for purified protein of the wild-type enzyme, MON-HT1, MON-HT13, MON-HT15, and MON-HT17.

Question: With B1 as the molecule, how does the “Vmax for 2,4-D relative to the wild-type enzyme” value read?
Answer: about half

Same assay, conditions: 23° C.

Question: Which “Vmax with quizalofop-P greater than the wild-type enzyme” value does the source give for B1 here?
Answer: approximately 40%

Same assay, conditions: 23° C.; purified His-tagged protein; standard error in parenthetical

Question: For B2, which “Vmax Quizalofop” value is on record?
Answer: 0.30 (−0.02) umol herbicide product mg enzyme-1 min-1

Question: Which “Vmax Quizalofop” value does the source give for B3 here?
Answer: 0.39 (−0.03) umol herbicide product mg enzyme-1 min-1

Question: Which “Vmax Quizalofop” value does the source give for B4 here?
Answer: 0.44 (−0.04) umol herbicide product mg enzyme-1 min-1

Question: Which “Vmax Quizalofop” value does the source give for B5 here?
Answer: 0.77 (−0.04) umol herbicide product mg enzyme-1 min-1

Question: With B1 as the molecule, how does the “Vmax Quizalofop” value read?
Answer: 1.94 (−0.12) umol herbicide product mg enzyme-1 min-1

Question: Which “Vmax Quizalofop” value does the source give for B6 here?
Answer: 0.57 (−0.03) umol herbicide product mg enzyme-1 min-1

Same assay, conditions: 23° C.; purified His-tagged protein; standard error in parenthetical; read-out: Km Quizalofop

Question: With B2 as the molecule, how does the Km read?
Answer: 240 µM

Question: With B3 as the molecule, how does the Km read?
Answer: 100 µM

Question: With B4 as the molecule, how does the Km read?
Answer: 320 µM

Question: With B5 as the molecule, how does the Km read?
Answer: 380 µM

Question: Which Km does the source give for B1 here?
Answer: 330 µM

Question: With B6 as the molecule, how does the Km read?
Answer: 170 µM

Same assay, conditions: standard error in parenthetical, NDB = activity not robust enough for kinetic characterization

Question: For B2, which “Km 2,4-D” value is on record?
Answer: NDB

Question: And the “Vmax 2,4-D” value?
Answer: NDB

Question: Which “Km 2,4-D” value does the source give for B3 here?
Answer: NDB

Question: And the “Vmax 2,4-D” value?
Answer: NDB

Question: With B4 as the molecule, how does the “Vmax 2,4-D” value read?
Answer: 0.03 (−0.02) umol herbicide product mg enzyme-1 min-1

Question: With B5 as the molecule, how does the “Vmax 2,4-D” value read?
Answer: 0.10 (−0.01) umol herbicide product mg enzyme-1 min-1

Question: With B1 as the molecule, how does the “Vmax 2,4-D” value read?
Answer: 0.04 (−0.01) umol herbicide product mg enzyme-1 min-1

Question: What does the source list for B6?
Answer: Km 2,4-D: NDB; Vmax 2,4-D: NDB

Same assay, conditions: standard error in parenthetical, NDB = activity not robust enough for kinetic characterization, read-out: Km 2,4-D

Question: Which Km does the source give for B4 here?
Answer: 690 µM

Question: For B5, which Km is on record?
Answer: 270 µM

Question: With B1 as the molecule, how does the Km read?
Answer: 60 µM

Assay: enzyme activity assay at 23° C. with purified enzyme
Assay type: biochemical
Details: haloxyfop, fenoxaprop, fluazifop and dichlorprop
Method: The enzyme activity of MON-HT protein variants with haloxyfop, fenoxaprop, fluazifop, and dichlorprop as substrates was determined using the enzyme activity assay conducted at 23° C. with purified enzyme. The activity was recorded as the maximum activity as a percentage of the wild-type enzyme's activity, which was set at 100%.

Question: Which “maximum activities for all four substrates compared with the wild-type enzyme” value does the source give for B2 here?
Answer: lower than, or equal to

Question: Which “maximum activities for all four substrates compared with the wild-type enzyme” value does the source give for B4 here?
Answer: lower than, or equal to

Question: Which “maximum activities for all four substrates compared with the wild-type enzyme” value does the source give for B5 here?
Answer: lower than, or equal to

Question: For B6, which “maximum activities for all four substrates compared with the wild-type enzyme” value is on record?
Answer: lower than, or equal to

Same assay, conditions: purified enzyme, wild-type set at 100%

Question: For B2, which “maximum activity as a percentage of the wild-type enzyme's activity, Haloxyfop” value (from here on “maximum activity as a percentage … Haloxyfop”) is on record?
Answer: 49%

Question: With B3 as the molecule, how does the “maximum activity as a percentage … Haloxyfop” value read?
Answer: 75%

Question: With B4 as the molecule, how does the “maximum activity as a percentage … Haloxyfop” value read?
Answer: 58%

Question: Which “maximum activity as a percentage … Haloxyfop” value does the source give for B5 here?
Answer: 67%

Question: With B6 as the molecule, how does the “maximum activity as a percentage … Haloxyfop” value read?
Answer: 100%

Same assay, conditions: wild-type set at 100%

Question: With B2 as the molecule, how does the “maximum activity as a percentage of the wild-type enzyme's activity, Dichlorprop” value (shortened to “maximum activity as a percentage … Dichlorprop”) read?
Answer: 39%

Question: And the “maximum activity as a percentage of the wild-type enzyme's activity, Fenoxaprop” value (“maximum activity as a percentage … Fenoxaprop” for short)?
Answer: 53%

Question: And the “maximum activity as a percentage of the wild-type enzyme's activity, Fluazifop” value (from here on “maximum activity as a percentage … Fluazifop”)?
Answer: 52%

Question: For B3, which “maximum activity as a percentage … Dichlorprop” value is on record?
Answer: 37%

Question: And the “maximum activity as a percentage … Fluazifop” value?
Answer: 47%

Question: With B4 as the molecule, how does the “maximum activity as a percentage … Dichlorprop” value read?
Answer: 31%

Question: And the “maximum activity as a percentage … Fenoxaprop” value?
Answer: 34%

Question: What about the “maximum activity as a percentage … Fluazifop” value of the same molecule?
Answer: 38%

Question: For B5, which “maximum activity as a percentage … Dichlorprop” value is on record?
Answer: 100%

Question: And the “maximum activity as a percentage … Fenoxaprop” value?
Answer: 83%

Question: What about the “maximum activity as a percentage … Fluazifop” value of the same molecule?
Answer: 60%

Question: What does the source list for B6?
Answer: maximum activity as a percentage of the wild-type enzyme's activity, Dichlorprop: 36%; maximum activity as a percentage of the wild-type enzyme's activity, Fenoxaprop: 92%; maximum activity as a percentage of the wild-type enzyme's activity, Fluazifop: 46%

Assay: not given
Assay type: physicochemical
Details: buffer
Method: A protein melting analysis was also conducted. For the protein melting determinations, purified enzyme was added to 96-well microtiter plates in standard storage buffer (30 mM Tris pH7.5, 150 mM NaCl) with or without 50 uM Fe2+ and 1.0 mM aKG. Protein unfolding was then detected with SYPRO® orange protein gel stain (Invitrogen™ catalog #S6651, Life Technologies, Grand Island, NY) in a BioRad CFX96™ Real time PCR machine (BioRad, Hercules, CA) with readings taken between 10° C. to 95° C. in 0.5° C. steps. […] In contrast, 50 uM Fe2+ and 1.0 mM aKG had little effect on the stability of any of the engineered proteins. MON-HT55, MON-HT3, MON-HT4, MON-HT6, and MON-HT10 had melting temperatures in the range of 41° C. to 48° C., which is below the melting temperature of the wild-type enzyme. MON-HT1, MON-HT2, MON-HT5, MON-HT7, MON-HT8, and MON-HT9 had melting temperatures between 58° C. and 67° C., which is 8° C. to 17° C. higher than the wild-type enzyme. For MON-HT7 and MON-HT1, the difference in melting point was 11° C. in buffer without Fe2+ and aKG and 8° C. in buffer with Fe2+ and aKG. This was surprising since there are only four amino acid differences between the two enzymes.
A protein melting analysis was conducted as detailed above. The melting temperatures of MON-HT13, MON-HT15, and MON-HT17 was similar to the melting temperature of MON-HT1 with T1/2 in buffer in the range of 55-58° C., and with T1/2 in buffer plus Fe2+ and aKG in the range of 60-62° C.

Question: For B2, which “T1/2, temperature where 50% of the protein was unfolded, Buffer plus Fe2+ and aKG” value is on record?
Answer: 44 °C

Question: Which “T1/2, temperature where 50% of the protein was unfolded, Buffer plus Fe2+ and aKG” value does the source give for B3 here?
Answer: 44 °C

Question: For B4, which “T1/2, temperature where 50% of the protein was unfolded, Buffer plus Fe2+ and aKG” value is on record?
Answer: 41 °C

Question: For B5, which “T1/2, temperature where 50% of the protein was unfolded, Buffer plus Fe2+ and aKG” value is on record?
Answer: 48 °C

Question: For B1, which “T1/2, temperature where 50% of the protein was unfolded, Buffer plus Fe2+ and aKG” value is on record?
Answer: 67 °C

Question: With B6 as the molecule, how does the “T1/2, temperature where 50% of the protein was unfolded, Buffer plus Fe2+ and aKG” value read?
Answer: 61 °C

Same assay, conditions: buffer, pH 7.5

Question: Which “T1/2, temperature where 50% of the protein was unfolded, Buffer” value does the source give for B2 here?
Answer: 43 °C

Question: Which “T1/2, temperature where 50% of the protein was unfolded, Buffer” value does the source give for B3 here?
Answer: 44 °C

Question: With B4 as the molecule, how does the “T1/2, temperature where 50% of the protein was unfolded, Buffer” value read?
Answer: 41 °C

Question: Which “T1/2, temperature where 50% of the protein was unfolded, Buffer” value does the source give for B5 here?
Answer: 46 °C

Question: With B1 as the molecule, how does the “T1/2, temperature where 50% of the protein was unfolded, Buffer” value read?
Answer: 67 °C

Question: For B6, which “T1/2, temperature where 50% of the protein was unfolded, Buffer” value is on record?
Answer: 60 °C
